Test results from patent US20210284734A1 (SYMPHOGEN A S, published 2021).

B1: 12819.17149 Fab (Fab, V domains shown)
VH: EVQLLESGGGLVQPGGSLRLSCAASGFTFTRYDMVWVRQAPGKGLEWVAGIGDSNKMTRYAPAVKGRATISRDNSKNTLYLQMNSLRAEDTAVYYCAKGSCIACWDEAGRIDAWGQGTLVTVSS
VL: SYELTQDPAVSVALGQTVRITCSGGGSYDGSSYYGWYQQKPGQAPVTVIYNNNNRPSDIPDRFSGSSSGNTASLTITGAQAEDEADYYCGSYDRPETNSDYVGMFGSGTKVTVL
notes: monomeric Fab fragment
B2: 13112.15380 Fab (Fab, V domains shown)
VH: EVQLLESGGGLVQPGGSLRLSCAASGFTFSSYNMFWVRQAPGKGLEFVAEISGSNTGSRTWYAPAVKGRATISRDNSKNTLYLQMNSLRAEDTAVYYCAKSIYGGYCAGGYSCGVGLIDAWGQGTLVTVSS
VL: SYELTQDPAVSVALGQTVRITCSGGSSDYYGWFQQKPGQAPVTVIYYNNKRPSDIPDRFSGSSSGNTASLTITGAQAEDEADYYCGNADSSVGVFGSGTKVTVL
B3: 12865.17150 Fab (Fab, V domains shown)
VH: EVQLLESGGGLVQPGGSLRLSCAASGFDFSDHGMQWVRQAPGKGLEYVGVIDTTGRYTYYAPAVKGRATISRDNSKNTLYLQMNSLRAEDTAVYYCAKTTCVGGYLCNTVGSIDAWGQGTLVTVSS
VL: SYELTQDPAVSVALGQTVRITCSGGGSSSYYGWYQQKPGQAPVTVIYDDTNRPSGIPDRFSGSSSGNTASLTITGAQAEDEADYYCGGYEGSSHAGIFGSGTKVTVL
notes: monomeric Fab fragment

Target: T1, human PD-1 ECD-Fc G90A (human, UniProt Q15116 21-170)
T1 construct: not shown: human IgG1 Fc, residues P101-K330
Test: SPR, Fab on captured PD-1-Fc;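 further: Alanine-scan PD-1 Fc fusions expressed transiently in ExpiCHO, captured on anti-human IgG Fc surface in IBIS MX96, anti-PD-1 Fab association 15 min, dissociation 30 min, Langmuir 1:1 fit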

Binder	KD mutant/KD wild-type
B1	1 ratio
B2	1 ratio
B3	0.8 ratio

Target: T2, human PD-1 ECD-Fc Q167A (human, UniProt Q15116 21-170)
T2 construct: label printed under 'Rat mutation', values in r90; not shown: human IgG1 Fc, residues P101-K330
Test: SPR, Fab on captured PD-1-Fc;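 further: Alanine-scan PD-1 Fc fusions expressed transiently in ExpiCHO, captured on anti-human IgG Fc surface in IBIS MX96, anti-PD-1 Fab association 15 min, dissociation 30 min, Langmuir 1:1 fit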

T2 sequence (Q15116 21-170 Q167A): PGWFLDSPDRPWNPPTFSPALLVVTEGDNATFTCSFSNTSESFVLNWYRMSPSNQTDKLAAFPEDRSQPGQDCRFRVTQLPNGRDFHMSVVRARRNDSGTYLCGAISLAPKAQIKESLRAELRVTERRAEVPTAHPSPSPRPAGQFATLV

Binder	KD mutant/KD wild-type
B1	0.8 ratio
B2	0.9 ratio
B3	1 ratio

Target: T3, human PD-1 ECD-Fc A40T (human, UniProt Q15116 21-170)
T3 construct: also called Rat mutation A40T; not shown: human IgG1 Fc, residues P101-K330
Test: SPR, Fab on captured PD-1-Fc;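 further: Alanine-scan PD-1 Fc fusions expressed transiently in ExpiCHO, captured on anti-human IgG Fc surface in IBIS MX96, anti-PD-1 Fab association 15 min, dissociation 30 min, Langmuir 1:1 fit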

Binder	KD mutant/KD wild-type
B1	2 ratio
B2	0.6 ratio
B3	1 ratio

Target: T4, human PD-1 ECD-Fc S60A (human, UniProt Q15116 21-170)
T4 construct: not shown: human IgG1 Fc, residues P101-K330
Test: SPR, Fab on captured PD-1-Fc;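 further: Alanine-scan PD-1 Fc fusions expressed transiently in ExpiCHO, captured on anti-human IgG Fc surface in IBIS MX96, anti-PD-1 Fab association 15 min, dissociation 30 min, Langmuir 1:1 fit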

T4 sequence (Q15116 21-170 S60A): as the sequence (Q15116 21-170 Q167A) above, with S40A, A147Q counted along it

Binder	KD mutant/KD wild-type
B1	1.8 ratio
B2	1 ratio
B3	0.6 ratio

Target: T5, human PD-1 ECD-Fc A163G (human, UniProt Q15116 21-170)
T5 construct: not shown: human IgG1 Fc, residues P101-K330
Test: SPR, Fab on captured PD-1-Fc

T5 sequence (Q15116 21-170 A163G): as the sequence (Q15116 21-170 Q167A) above, with A143G, A147Q counted along it

Binder	KD mutant/KD wild-type
B1	1 ratio
B2	1.1 ratio
B3	1.1 ratio

Target: T6, human PD-1 ECD-Fc A50G (human, UniProt Q15116 21-170)
T6 construct: not shown: human IgG1 Fc, residues P101-K330
Test: SPR, Fab on captured PD-1-Fc

Binder	KD mutant/KD wild-type
B1	1.4 ratio
B2	1.7 ratio
B3	0.6 ratio

Target: T7, human PD-1 ECD-Fc T36A (human, UniProt Q15116 21-170)
T7 construct: not shown: human IgG1 Fc, residues P101-K330
Test: SPR, Fab on captured PD-1-Fc

T7 sequence (Q15116 21-170 T36A): as the sequence (Q15116 21-170 Q167A) above, with T16A, A147Q counted along it

Binder	KD mutant/KD wild-type
B1	1 ratio
B2	0.9 ratio
B3	1 ratio

Target: T8, human PD-1 ECD-Fc L138A (human, UniProt Q15116 21-170)
T8 construct: not shown: human IgG1 Fc, residues P101-K330
Test: SPR, Fab on captured PD-1-Fc

Binder	KD mutant/KD wild-type
B1	1 ratio
B2	1.2 ratio
B3	1.1 ratio

Target: T9, human PD-1 ECD-Fc Q91A (human, UniProt Q15116 21-170)
T9 construct: not shown: human IgG1 Fc, residues P101-K330
Test: SPR, Fab on captured PD-1-Fc

T9 sequence (Q15116 21-170 Q91A): as the sequence (Q15116 21-170 Q167A) above, with Q71A, A147Q counted along it

Binder	KD mutant/KD wild-type
B1	0.8 ratio
B2	1 ratio
B3	1 ratio

Target: T10, human PD-1 ECD-Fc P152A (human, UniProt Q15116 21-170)
T10 construct: not shown: human IgG1 Fc, residues P101-K330
Test: SPR, Fab on captured PD-1-Fc

T10 sequence (Q15116 21-170 P152A): as the sequence (Q15116 21-170 Q167A) above, with P132A, A147Q counted along it

Binder	KD mutant/KD wild-type
B1	1.4 ratio
B2	1 ratio
B3	0.9 ratio

Target: T11, human PD-1 ECD-Fc N102A (human, UniProt Q15116 21-170)
T11 construct: not shown: human IgG1 Fc, residues P101-K330
Test: SPR, Fab on captured PD-1-Fc

T11 sequence (Q15116 21-170 N102A): as the sequence (Q15116 21-170 Q167A) above, with N82A, A147Q counted along it

Binder	KD mutant/KD wild-type
B1	1.5 ratio
B2	0.7 ratio
B3	0.6 ratio

Target: T12, human PD-1 ECD-Fc N58A (human, UniProt Q15116 21-170)
T12 construct: not shown: human IgG1 Fc, residues P101-K330
Test: SPR, Fab on captured PD-1-Fc

Binder	KD mutant/KD wild-type
B1	1.3 ratio
B2	1 ratio
B3	0.7 ratio

Target: T13, human PD-1 ECD-Fc P28L (human, UniProt Q15116 21-170)
T13 construct: also called Rat mutation P28L; not shown: human IgG1 Fc, residues P101-K330
Test: SPR, Fab on captured PD-1-Fc

T13 sequence (Q15116 21-170 P28L): as the sequence (Q15116 21-170 Q167A) above, with P8L, A147Q counted along it

Binder	KD mutant/KD wild-type
B1	1.9 ratio
B2	0.7 ratio
B3	0.5 ratio

Target: T14, human PD-1 ECD-Fc T145A (human, UniProt Q15116 21-170)
T14 construct: not shown: human IgG1 Fc, residues P101-K330
Test: SPR, Fab on captured PD-1-Fc

Binder	KD mutant/KD wild-type
B1	1.1 ratio
B2	82.4 ratio
B3	0.7 ratio

Target: T15, human PD-1 ECD-Fc E150A (human, UniProt Q15116 21-170)
T15 construct: not shown: human IgG1 Fc, residues P101-K330
Test: SPR, Fab on captured PD-1-Fc

T15 sequence (Q15116 21-170 E150A): as the sequence (Q15116 21-170 Q167A) above, with E130A, A147Q counted along it

Binder	KD mutant/KD wild-type
B1	1 ratio
B2	1 ratio
B3	1 ratio

Target: T16, human PD-1 ECD-Fc N33A (human, UniProt Q15116 21-170)
T16 construct: not shown: human IgG1 Fc, residues P101-K330
Test: SPR, Fab on captured PD-1-Fc

Binder	KD mutant/KD wild-type
B1	1 ratio
B2	1 ratio
B3	1.1 ratio

Target: T17, human PD-1 ECD-Fc S27A (human, UniProt Q15116 21-170)
T17 construct: not shown: human IgG1 Fc, residues P101-K330
Test: SPR, Fab on captured PD-1-Fc

T17 sequence (Q15116 21-170 S27A): as the sequence (Q15116 21-170 Q167A) above, with S7A, A147Q counted along it

Binder	KD mutant/KD wild-type
B1	0.8 ratio
B2	1.1 ratio
B3	0.8 ratio

Target: T18, human PD-1 ECD-Fc T76A (human, UniProt Q15116 21-170)
T18 construct: not shown: human IgG1 Fc, residues P101-K330
Test: SPR, Fab on captured PD-1-Fc

T18 sequence (Q15116 21-170 T76A): as the sequence (Q15116 21-170 Q167A) above, with T56A, A147Q counted along it

Binder	KD mutant/KD wild-type
B1	1.4 ratio
B2	1.2 ratio
B3	0.3 ratio

Target: T19, human PD-1 ECD-Fc L42A (human, UniProt Q15116 21-170)
T19 construct: not shown: human IgG1 Fc, residues P101-K330
Test: SPR, Fab on captured PD-1-Fc

T19 sequence (Q15116 21-170 L42A): as the sequence (Q15116 21-170 Q167A) above, with L22A, A147Q counted along it

Binder	KD mutant/KD wild-type
B1	1.3 ratio
B2	2.2 ratio
B3	0.5 ratio

Target: T20, human PD-1 ECD-Fc Y68A (human, UniProt Q15116 21-170)
T20 construct: not shown: human IgG1 Fc, residues P101-K330
Test: SPR, Fab on captured PD-1-Fc

T20 sequence (Q15116 21-170 Y68A): as the sequence (Q15116 21-170 Q167A) above, with Y48A, A147Q counted along it

Binder	KD mutant/KD wild-type
B1	2.2 ratio
B2	0.8 ratio
B3	1.4 ratio

Target: T21, human PD-1 ECD-Fc P83A (human, UniProt Q15116 21-170)
T21 construct: not shown: human IgG1 Fc, residues P101-K330
Test: SPR, Fab on captured PD-1-Fc

T21 sequence (Q15116 21-170 P83A): as the sequence (Q15116 21-170 Q167A) above, with P63A, A147Q counted along it

Binder	KD mutant/KD wild-type
B1	1.5 ratio
B2	0.9 ratio
B3	0.8 ratio

Target: T22, human PD-1 ECD-Fc G103A (human, UniProt Q15116 21-170)
T22 construct: not shown: human IgG1 Fc, residues P101-K330
Test: SPR, Fab on captured PD-1-Fc

Binder	KD mutant/KD wild-type
B1	1.1 ratio
B2	0.9 ratio
B3	0.8 ratio

Target: T23, human PD-1 ECD-Fc P130A (human, UniProt Q15116 21-170)
T23 construct: not shown: human IgG1 Fc, residues P101-K330
Test: SPR, Fab on captured PD-1-Fc

T23 sequence (Q15116 21-170 P130A): as the sequence (Q15116 21-170 Q167A) above, with P110A, A147Q counted along it

Binder	KD mutant/KD wild-type
B1	105 ratio
B2	0.9 ratio
B3	0.5 ratio

Target: T24, human PD-1 ECD-Fc K78A (human, UniProt Q15116 21-170)
T24 construct: not shown: human IgG1 Fc, residues P101-K330
Test: SPR, Fab on captured PD-1-Fc

T24 sequence (Q15116 21-170 K78A): as the sequence (Q15116 21-170 Q167A) above, with K58A, A147Q counted along it

Binder	KD mutant/KD wild-type
B1	2.6 ratio
B2	1.1 ratio
B3	0.7 ratio

Target: T25, human PD-1 ECD-Fc P162A (human, UniProt Q15116 21-170)
T25 construct: not shown: human IgG1 Fc, residues P101-K330
Test: SPR, Fab on captured PD-1-Fc

Binder	KD mutant/KD wild-type
B1	1.3 ratio
B2	1.1 ratio
B3	1.1 ratio

Target: T26, human PD-1 ECD-Fc G164A (human, UniProt Q15116 21-170)
T26 construct: not shown: human IgG1 Fc, residues P101-K330
Test: SPR, Fab on captured PD-1-Fc

T26 sequence (Q15116 21-170 G164A): as the sequence (Q15116 21-170 Q167A) above, with G144A, A147Q counted along it

Binder	KD mutant/KD wild-type
B1	1.1 ratio
B2	1 ratio
B3	0.9 ratio

Target: T27, human PD-1 ECD-Fc S87A (human, UniProt Q15116 21-170)
T27 construct: not shown: human IgG1 Fc, residues P101-K330
Test: SPR, Fab on captured PD-1-Fc

T27 sequence (Q15116 21-170 S87A): as the sequence (Q15116 21-170 Q167A) above, with S67A, A147Q counted along it

Binder	KD mutant/KD wild-type
B1	1.3 ratio
B2	1 ratio
B3	0.9 ratio

Target: T28, human PD-1 ECD-Fc P72A (human, UniProt Q15116 21-170)
T28 construct: not shown: human IgG1 Fc, residues P101-K330
Test: SPR, Fab on captured PD-1-Fc

T28 sequence (Q15116 21-170 P72A): as the sequence (Q15116 21-170 Q167A) above, with P52A, A147Q counted along it

Binder	KD mutant/KD wild-type
B1	1.1 ratio
B2	1 ratio
B3	1.8 ratio

Target: T29, human PD-1 ECD-Fc T98A (human, UniProt Q15116 21-170)
T29 construct: not shown: human IgG1 Fc, residues P101-K330
Test: SPR, Fab on captured PD-1-Fc

Binder	KD mutant/KD wild-type
B1	1.1 ratio
B2	1 ratio
B3	0.9 ratio

Target: T30, human PD-1 ECD-Fc Q165A (human, UniProt Q15116 21-170)
T30 construct: not shown: human IgG1 Fc, residues P101-K330
Test: SPR, Fab on captured PD-1-Fc

Binder	KD mutant/KD wild-type
B1	1.1 ratio
B2	1.1 ratio
B3	1.1 ratio

Target: T31, human PD-1 ECD-Fc T153A (human, UniProt Q15116 21-170)
T31 construct: not shown: human IgG1 Fc, residues P101-K330
Test: SPR, Fab on captured PD-1-Fc

T31 sequence (Q15116 21-170 T153A): as the sequence (Q15116 21-170 Q167A) above, with T133A, A147Q counted along it

Binder	KD mutant/KD wild-type
B1	0.9 ratio
B2	1 ratio
B3	1 ratio
